These results are taken from article PMC4072569 (Molecular Biology of the Cell, 2014).

First the molecules themselves.
B4: Blt1p-hexahistidine (natural protein, S. pombe, UniProt O74338 1-700, looked up)
chain: MSKSAFTSKSQLKGIDGSFNDPFRQPSMNLPTPPHDDGLPSIPRSTALPNLSNRLSPYSHRNYLPIPEADSRNLEVLNSISLTTGSVVNQINKLYQRSCDNANYLQDLRSLILQTPTAEANATQVTESLNQIQKILQEASSKDREQIVQVIKELNKGNSLEVRRELGNCLAHLKKGTLNIDNALQASLQKYWKELQYFNVSKDKLLSLEESIKLLSARLEETDTPSSTHWIEINAGFKEVGDELSENFQRKQEILSGLQNNVILRTNNRKPVGSDGSNSNFNGGEEQMDSKDQEEIQDYLNSLLSVHEKDGVLLQKFHNSYVQYQKLAVALSKYENFDADKLFQQMNLAKQSNETLLQTLTEQTDQLLSFKETMDSFKFILGPSMENQALQQGILAEQQDLVAQLRDIVLRSETLAENPSNMPGSCLPGASSNTADEFTEQLNLLKNEVARLSAICPSPNSGINASVLTNADNLEKENLLLVNNNAFKVDDRSVSSVALDDHNRQLQMNVEELEGKKADLTSKINRLDKDFVKLNTTYSLLTDQVKTKQLALQEIESRVIRLEERLNMLQKLSMQPAISSSSEFVPIESHPSSSAVVPIEEPKNSIIEKKRVPHNAARNSVNLEVTLPNSKKRFSSFSGSSSKLPVRPSTALTDKRKPSWSRRLAAAIGFSSGSPEKKHVITSSDAGHQRSKSRSFSSKM

In data set [1] the target is B4. The experiment in a line: pull-down.
Data set [2] concerns the molecule itself. The experiment in a line: AUC.

B1: Sid2p-mEGFP (natural protein, S. pombe, UniProt Q09898 1-607, looked up)
chain: MNRVNDMSPVEGDLGLQLSSEADKKFDAYMKRHGLFEPGNLSNNDKERNLEDQFNSMKLSPVASSKENYPDNHMHSKHISKLPIASPIPRGLDRSGELSYKDNNHWSDRSSTGSPRWENGSMNLSVEEMEKVVQPKVKRMATICQMFFLDHYFEQLHYLYTRKQRARLFEEQLLKEPDSRRDELVKRYNGRERVYLRKRRTRISHGDFQTITQVGQGGYGSVWLARKRDTKEIVALKIMNKSVLHKMDEIRHVLTERDILTTANSEWLVRLLYAFQDTSNIYLAMEFVPGGDFRTLLSNSGVLRDHHAKFYATEMFLAIDALHQLGYIHRDLKPENFLVGASGHIKLTDFGLSSGIISKKKIESMKIRLQEVNNVVVPERSMRERRQVFRTLLSQDPVYAHSVVGSPDYMAPEVLRGENYNHSVDYWSLGCIMYECLSGFPPFSGSNVNETWSNLKNWRKCFQRPHYDDPRDLEFNWRDDAWDFVCHCITDPKDRFCSLKQVMQHPYFSKIDWKNVRTAYRPPFVPDLNSEIDAGYFDDFTNENDMSKYKEVHEKQAAIANMVNTFNKPKRNAFIGFTFRHQKNSHPTSSSSALSSPLSAPSFGTLL
Consider B1, for which the “percent pulled down from lysate” value in data set [1] turned out to be 22%.

B2: Mob1p-mEGFP (natural protein, S. pombe, UniProt O94360 1-210, looked up)
chain: MFGFSNKTAKTFRVRKTEAGTKHYQLRQYAEATLGSGSLMEAVKLPKGEDLNEWIAMNTMDFYTQINMLYGTITEFCTAASCPQMNAGPSYEYYWQDDKIYTKPTRMSAPDYINNLLDWTQEKLDDKKLFPTEIGVEFPKNFRKVIQQIFRRLFRIYAHIYCSHFHVMVAMELESYLNTSFKHFVFFCREFGLMDNKEYAPMQDLVDSMV
With B2, the “percent pulled down from lysate” value in data set [1] was found to be 42%.

B3: Cdc15p-mEGFP (natural protein, S. pombe, UniProt Q09822 1-927, looked up)
chain: MEVNGVSQSEAAPYVTKSSVKFRDNFWGSEDAGMDALMSRTKSSLSVLESIDEFYAKRASIEREYASKLQELAASSADIPEVGSTLNNILSMRTETGSMAKAHEEVSQQINTELRNKIREYIDQTEQQKVVAANAIEELYQKKTALEIDLSEKKDAYEYSCNKLNSYMRQTKKMTGRELDKYNLKIRQAALAVKKMDAEYRETNELLLTVTREWIDRWTEVCDAFQHIEEYRLEFLKTNMWAYANIISTACVKDDESCEKIRLTLENTNIDEDITQMIQNEGTGTTIPPLPEFNDYFKENGLNYDIDQLISKAPSYPYSSSRPSASASLASSPTRSAFRPKTSETVSSEVVSSPPTSPLHSPVKPVSNEQVEQVTEVELSIPVPSIQEAESQKPVLTGSSMRRPSVTSPTFEVAARPLTSMDVRSSHNAETEVQAIPAATDISPEVKEGKNSENAITKDNDDIILSSQLQPTATGSRSSRLSFSRHGHGSQTSLGSIKRKSIMERMGRPTSPFMGSSFSNMGSRSTSPTKEGFASNQHATGASVQSDELEDIDPRANVVLNVGPNMLSVGEAPVESTSKEEDKDVPDPIANAMAELSSSMRRRQSTSVDDEAPVSLSKTSSSTRLNGLGYHSRNTSIASDIDGVPKKSTLGAPPAAHTSAQMQRMSNSFASQTKQVFGEQRTENSARESLRHSRSNMSRSPSPMLSRRSSTLRPSFERSASSLSVRQSDVVSPAPSTRARGQSVSGQQRPSSSMSLYGEYNKSQPQLSMQRSVSPNPLGPNRRSSSVLQSQKSTSSNTSNRNNGGYSGSRPSSEMGHRYGSMSGRSMRQVSQRSTSRARSPEPTNRNSVQSKNVDPRATFTAEGEPILGYVIALYDYQAQIPEEISFQKGDTLMVLRTQEDGWWDGEIINVPNSKRGLFPSNFVQTV
Consider B3, for which the “percent pulled down from lysate” value in data set [1] stood at 23%. On to B4, for which, in data set [2], the stoichiometry N (in general, the number of molecules, sites or subunits per partner or assembly) was 4.
